Paper PMC5608031

Tests used:
Assay type in all cases: biochemical, Homo sapiens
Details in all cases: PAPS
[1] = substrate: CC(C)(c1ccc(O)cc1)c1ccc(O)cc1; experiment: purified protein
[2] = substrate: O=c1c(-c2ccc(O)cc2)coc2cc(O)cc(O)c12; experiment: purified protein
[3] = substrate: O=c1cc(-c2ccc(O)cc2)oc2ccc(O)cc12; experiment: purified protein
[4] = substrate: O=c1cc(-c2ccc(O)cc2)oc2cc(O)cc(O)c12; experiment: purified protein
[5] = substrate: O=c1cc(-c2ccccc2)oc2cc(O)cc(O)c12; experiment: purified protein
[6] = substrate: O=c1c(-c2ccc(O)cc2)coc2cc(O)ccc12; experiment: purified protein
[7] = substrate: Oc1cccc2ccccc12; experiment: radiolabeled sulfonation assay, Km

B1: human cytosolic sulfotransferase 1C4 (hSULT1C4) (Homo sapiens) (protein)
chain: MALHDMEDFTFDGTKRLSVNYVKGILQPTDTCDIWDKIWNFQAKPDDLLISTYPKAGTTWTQEIVELIQNEGDVEKSKRAPTHQRFPFLEMKIPSLGSGLEQAHAMPSPRILKTHLPFHLLPPSLLEKNCKIIYVARNPKDNMVSYYHFQRMNKALPAPGTWEEYFETFLAGKVCWGSWHEHVKGWWEAKDKHRILYLFYEDMKKNPKHEIQKLAEFIGKKLDDKVLDKIVHYTSFDVMKQNPMANYSSIPAEIMDHSISPFMRKGAVGDWKKHFTVAQNERFDEDYKKKMTDTRLTFHFQF
In the case of B1, the Km [1] is reported as 32.8 ± 3.2 µM, the Km [2] is reported as 3.3 ± 0.3 µM and the Km [3] is reported as 10.1 ± 2.1 µM. For the same protein, the Km [4] was 1.7 ± 1.0 µM, the Km [5] was 0.9 ± 0.4 µM and the Km [6] was 10.5 ± 1.1 µM. The Km [7] was 1.1 ± 0.2 µM.
